Reference: the supplement of paper PMC7877785
± gives the uncertainty stated by the source.

Test: self-splicing fitness, log relative to wild type (ln ratio); higher = more splicing; Tetrahymena group I intron in knt gene, E. coli kanamycin selection, DiMSum; sequences stand for … in CUCUCU…GGAGGGAAAAGUUAUCAGGCAUGCACCUGGUAGCUAGUCUUUAAACCAAUAGAUUGCAUCGGUUUAAAAGGCAAGACCGUCAAAUUGCGGGAAAGGGGUCAACAGCCGUUCAGUACCAAGUCUCAGGGGAAACUUUGAGAUGGCCUUGCAAAGGGUAUGGUAAUAAGCUGACGGACAUGGUCCUAACCACGCAGCCAAGUCCUAAGUCAACAGAUCUUCUGUUGAUAUGGAUGCAGUUCACAGACUAAAUGUCGGUCGGGGAAGAUGUAUUCUUCUCAUAAGAUAUAGUCGGACCUCUCCUUAAUGGGAGCUAGCGGAUGAAGUGAUGCAACACUGGAGCCGCUGGGAACUAAUUUGUAUGCGAAAGUAUAUUGAUUAGUUUUGGAGUACUCGUGGUCG
Outline: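 Colonies from six replicate transformations of E. coli BL21(DE3) were pooled and amplicon-sequenced on an Illumina HiSeq 2500. The library placed an intron with all eight P1ex-region nucleotides randomised inside the knt kanamycin-resistance gene on pET-22b(+), and cells grew overnight at 37°C or 30°C on LB agar with or without 25 μg/mL kanamycin (plus 100 μg/mL carbenicillin, 50 μM IPTG, 0.2% rhamnose). Fitness is the DiMSum error-weighted combination of wild-type-normalised replicate fold changes, kanamycin versus none.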

| Sequence | self-splicing fitness (ln) (30 °C) | self-splicing fitness (ln) (37 °C) |
| --- | --- | --- |
| CUCAAGCAAUAUUACGAAAU | -4.62 ± 0.46 | -2.14 ± 0.17 |
| CUAAAGCAAUAUUACGUGUC | -3.88 ± 0.2 | -2.85 ± 0.25 |
| UCCUAGCAAUAUUACGGGCC | -2.79 ± 0.12 | -1.17 ± 0.11 |
| UAUUAGCAAUAUUACGCGGA | -2.1 ± 0.2 | -1.08 ± 0.13 |
| CAUAAGCAAUAUUACGGAUG | -3.14 ± 0.14 | -2.17 ± 0.15 |
| AAGUAGCAAUAUUACGCCCU | -0.145 ± 0.17 | -0.639 ± 0.19 |
| UGAUAGCAAUAUUACGAUAU | -2.94 ± 0.2 | -2.12 ± 0.21 |
| AAUCAGCAAUAUUACGUGGC | -3.57 ± 0.17 | -1.83 ± 0.12 |
| AGAUAGCAAUAUUACGUACU | -0.357 ± 0.15 | -0.0062 ± 0.15 |
| AUGAAGCAAUAUUACGUUUG | -2.28 ± 0.11 | -1.56 ± 0.13 |
| CACGAGCAAUAUUACGUCGG | -2.27 ± 0.11 | -2.16 ± 0.17 |
| AGCGAGCAAUAUUACGCAAC | -3.6 ± 0.27 | -2.63 ± 0.21 |
| GCCGAGCAAUAUUACGUAAA | -2.41 ± 0.14 | -1.36 ± 0.17 |
| GACUAGCAAUAUUACGUUUC | -2.3 ± 0.12 | -2.84 ± 0.18 |
| AGCCAGCAAUAUUACGUAAA | -3.03 ± 0.12 | -1.55 ± 0.13 |
| ACUCAGCAAUAUUACGUAGU | -2.86 ± 0.13 | -1.35 ± 0.12 |
| AUAAAGCAAUAUUACGCUAU | -1.28 ± 0.089 | -0.692 ± 0.098 |
| GCCAAGCAAUAUUACGACGG | -3.8 ± 0.23 | -2.55 ± 0.21 |
| GAGAAGCAAUAUUACGAUCC | -1.9 ± 0.26 | -0.963 ± 0.43 |
| UCCAAGCAAUAUUACGAGAU | -3.54 ± 0.18 | – |
| GAGUAGCAAUAUUACGGAGU | -3.7 ± 0.27 | -3.05 ± 0.19 |
| CAUCAGCAAUAUUACGGCGU | -2.3 ± 0.14 | -1.94 ± 0.17 |
| GGCCAGCAAUAUUACGUAAU | -0.304 ± 0.098 | -0.62 ± 0.098 |
| AAGCAGCAAUAUUACGCCCC | -0.65 ± 0.15 | -0.107 ± 0.19 |
| GCGAAGCAAUAUUACGAUUC | -1.46 ± 0.097 | -0.598 ± 0.13 |

| Sequence | self-splicing fitness (ln) (30 °C) | self-splicing fitness (ln) (37 °C) |
| --- | --- | --- |
| AUCGAGCAAUAUUACGAAAG | -2.41 ± 0.13 | -0.783 ± 0.14 |
| GAAUAGCAAUAUUACGCACA | -0.518 ± 0.15 | 1.18 ± 0.18 |
| GAUUAGCAAUAUUACGUACU | -0.632 ± 0.073 | 0.0191 ± 0.088 |
| GUCUAGCAAUAUUACGGCAG | – | -1.72 ± 0.44 |
| CGGGAGCAAUAUUACGGUAU | -3.81 ± 0.47 | -2.36 ± 0.42 |
| UUUAAGCAAUAUUACGUGCC | -1.95 ± 0.21 | -0.891 ± 0.22 |
| UGACAGCAAUAUUACGGAAU | -4.15 ± 0.28 | -1.55 ± 0.17 |
| CGUGAGCAAUAUUACGUCCG | -1.95 ± 0.16 | -0.866 ± 0.22 |
| AUUCAGCAAUAUUACGCAGC | -1.82 ± 0.38 | -1.15 ± 0.26 |
| GUCAAGCAAUAUUACGCCAA | – | -1.52 ± 0.28 |
| CCGUAGCAAUAUUACGAAGU | -3.05 ± 0.21 | -1.46 ± 0.31 |
| GCACAGCAAUAUUACGUUUG | -1.62 ± 0.066 | -1.08 ± 0.089 |
| UAGAAGCAAUAUUACGGUCU | -0.542 ± 0.11 | 0.318 ± 0.11 |
| UCUCAGCAAUAUUACGGCCU | – | -1.67 ± 0.34 |
| UCGGAGCAAUAUUACGAGCC | -2.93 ± 0.41 | – |
| GCUCAGCAAUAUUACGCCAU | -3.28 ± 0.48 | -2.26 ± 0.36 |
| UCCGAGCAAUAUUACGGUUU | -3.42 ± 0.22 | -1.02 ± 0.14 |
| GCACAGCAAUAUUACGCUCC | -1.27 ± 0.16 | 0.155 ± 0.17 |
| UACAAGCAAUAUUACGACUA | -0.188 ± 0.062 | 0.316 ± 0.083 |
| AACGAGCAAUAUUACGUUGG | -3.75 ± 0.24 | -2.86 ± 0.25 |
| UCGUAGCAAUAUUACGACUU | -2.7 ± 0.22 | -0.781 ± 0.17 |
| ACCGAGCAAUAUUACGAGAC | -3.81 ± 0.25 | -2.84 ± 0.4 |
| ACCCAGCAAUAUUACGCAGA | -1.02 ± 0.068 | -0.231 ± 0.072 |
| CGUGAGCAAUAUUACGUAUA | -2.71 ± 0.18 | -1.55 ± 0.18 |
| UUGUAGCAAUAUUACGAGGC | -3.07 ± 0.27 | -1.77 ± 0.31 |

| Sequence | self-splicing fitness (ln) (30 °C) | self-splicing fitness (ln) (37 °C) |
| --- | --- | --- |
| CCGGAGCAAUAUUACGGAAG | -2.73 ± 0.11 | -2.21 ± 0.14 |
| AUUCAGCAAUAUUACGGAUA | -1.72 ± 0.17 | -1.17 ± 0.14 |
| CACAAGCAAUAUUACGGUAA | -2.26 ± 0.096 | -2.21 ± 0.12 |
| GUAAAGCAAUAUUACGGUUA | -0.077 ± 0.058 | 0.569 ± 0.086 |
| UGAAAGCAAUAUUACGCCCU | -0.195 ± 0.11 | 0.295 ± 0.15 |
| ACCCAGCAAUAUUACGUGGU | -3.89 ± 0.11 | -2.76 ± 0.14 |
| UAACAGCAAUAUUACGCGGC | -3.99 ± 0.28 | -2.65 ± 0.35 |
| AUAGAGCAAUAUUACGACAU | 0.275 ± 0.013 | 0.437 ± 0.033 |
| GCCGAGCAAUAUUACGCCCC | -1.58 ± 0.37 | – |
| UCGGAGCAAUAUUACGAGGA | -3.64 ± 0.4 | -0.618 ± 0.21 |
| AUGCAGCAAUAUUACGAAUC | -3.82 ± 0.24 | -2.87 ± 0.2 |
| GUCAAGCAAUAUUACGGUGU | -2.05 ± 0.071 | -0.734 ± 0.083 |
| UUUCAGCAAUAUUACGCCAG | -1.4 ± 0.31 | -0.498 ± 0.24 |
| CGUGAGCAAUAUUACGUCAU | -2.46 ± 0.21 | -2.81 ± 0.24 |
| GAUAAGCAAUAUUACGAUGC | -0.7 ± 0.11 | -0.45 ± 0.11 |
| CCAGAGCAAUAUUACGAACC | -2.33 ± 0.28 | -1.77 ± 0.38 |
| GAACAGCAAUAUUACGGGCG | -1.68 ± 0.086 | -0.0108 ± 0.097 |
| CGGUAGCAAUAUUACGGCAA | -2.22 ± 0.19 | -2.52 ± 0.28 |
| CUCAAGCAAUAUUACGCUUG | -3.58 ± 0.18 | -2.38 ± 0.23 |
| GCUAAGCAAUAUUACGGCCC | -1.78 ± 0.18 | -0.371 ± 0.14 |
| CGCUAGCAAUAUUACGUAUG | -1.27 ± 0.066 | -0.236 ± 0.09 |
| UAACAGCAAUAUUACGGCAU | -1.85 ± 0.093 | 0.0326 ± 0.093 |
| AUUUAGCAAUAUUACGAUCU | 0.177 ± 0.13 | 0.0446 ± 0.11 |
| CAAAAGCAAUAUUACGUGGG | -3.26 ± 0.12 | -2.6 ± 0.12 |
| CAUGAGCAAUAUUACGGGUA | -2.86 ± 0.28 | -2.23 ± 0.28 |

| Sequence | self-splicing fitness (ln) (30 °C) | self-splicing fitness (ln) (37 °C) |
| --- | --- | --- |
| CCGCAGCAAUAUUACGGCUC | -4.29 ± 0.21 | -1.34 ± 0.12 |
| GCCCAGCAAUAUUACGUUAC | -2.2 ± 0.083 | -0.962 ± 0.087 |
| UCAGAGCAAUAUUACGGGUC | -3.97 ± 0.34 | -2.12 ± 0.32 |
| CUCUAGCAAUAUUACGGAAC | -2.81 ± 0.47 | – |
| AUUUAGCAAUAUUACGUUCU | -0.544 ± 0.085 | -0.0441 ± 0.12 |
| AGUUAGCAAUAUUACGAUAA | -2.31 ± 0.21 | -0.658 ± 0.22 |
| CAAGAGCAAUAUUACGACUG | -1.57 ± 0.12 | -1.19 ± 0.19 |
| CCUUAGCAAUAUUACGUAUA | – | -3.25 ± 0.37 |
| CGCUAGCAAUAUUACGCGUG | -2.8 ± 0.13 | -1.77 ± 0.12 |
| AUACAGCAAUAUUACGAUCA | -0.716 ± 0.086 | -0.37 ± 0.093 |
| ACUAAGCAAUAUUACGGGGA | -1.84 ± 0.12 | -1.55 ± 0.13 |
| ACGGAGCAAUAUUACGGUUA | -2.6 ± 0.23 | -2.2 ± 0.15 |
| CUCCAGCAAUAUUACGUGUU | -3.62 ± 0.13 | -2.31 ± 0.11 |
| UUGAAGCAAUAUUACGACAA | 0.222 ± 0.087 | 0.511 ± 0.12 |
| AUAGAGCAAUAUUACGACCU | -1.41 ± 0.23 | -0.988 ± 0.21 |
| AGACAGCAAUAUUACGUUAU | -2.29 ± 0.1 | -2.06 ± 0.12 |
| CCCCAGCAAUAUUACGUCUA | -3.09 ± 0.14 | -2.84 ± 0.2 |
| AUCAAGCAAUAUUACGGAUG | -2.01 ± 0.079 | -0.664 ± 0.082 |
| UAGGAGCAAUAUUACGGAUA | -2.09 ± 0.29 | -1.46 ± 0.23 |
| UUUUAGCAAUAUUACGUGUG | -2.29 ± 0.16 | -1.17 ± 0.15 |
| UAAUAGCAAUAUUACGAAUU | – | -2.58 ± 0.24 |
| CCACAGCAAUAUUACGGCCC | -2.78 ± 0.29 | – |
| UCAUAGCAAUAUUACGUGGG | -3.39 ± 0.16 | -1.75 ± 0.098 |
